Here are results for three substances from article PMC3870021.

For one assay, the target named is EPCR (Homo sapiens) (UniProt Q9UNN8). Particulars: cited from earlier work.
Assay [1] deals with recombinant human EPCR (extracellular domain Met1-Thr209, C-terminal poly-histidine tag) (human) (UniProt Q9UNN8). Description: SPR.

One may read the Kd as the concentration at which binding is half-saturated.

recombinant human EPCR (extracellular domain Met1-Thr209, C-terminal poly-histidine tag) (human), sequence (Q9UNN8 18-209): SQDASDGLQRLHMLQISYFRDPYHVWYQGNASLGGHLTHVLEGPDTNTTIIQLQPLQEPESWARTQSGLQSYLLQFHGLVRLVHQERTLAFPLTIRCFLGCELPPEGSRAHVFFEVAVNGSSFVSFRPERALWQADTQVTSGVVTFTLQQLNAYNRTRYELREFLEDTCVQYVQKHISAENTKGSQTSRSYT
EPCR (Homo sapiens), sequence (Q9UNN8 18-210): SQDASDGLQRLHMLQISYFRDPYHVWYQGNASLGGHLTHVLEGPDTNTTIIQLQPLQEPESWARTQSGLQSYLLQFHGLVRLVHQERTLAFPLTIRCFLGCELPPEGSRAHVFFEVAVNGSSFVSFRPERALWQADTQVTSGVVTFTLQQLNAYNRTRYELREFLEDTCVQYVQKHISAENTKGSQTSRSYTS

Turning to “Activated protein C (from UniProt P04070)”, in the assay with EPCR (Homo sapiens), the Kd was 32 nM.
For “activated protein C (commercial human purified APC) (from UniProt P04070 43-197) (enzyme)”, the Kd in assay [1] is 1000 nM.
Same read-out and setting: then “recombinant full-length DC8-containing PfEMP1 IT4VAR20 (natural protein)”, with 10 nM.
